The values that follow come from article PMC9546773, “Prediction of protein–ligand binding affinity from sequencing data with interpretable machine learning”.

What is called Kd is the equilibrium constant for the complex coming apart. High values mean a looser complex, low ones a tighter complex.

The chains are these.
B1: probe 1 (dsDNA)
DNA 1: GTTCAGAGTTCTACAGTCCGACCTGGTTTAATTGGTCCAGGACTCGGACCTGGACTAGG
DNA 2: CCTAGTCCAGGTCCGAGTCCTGGACCAATTAAACCAGGTCGGACTGTAGAACTCTGAAC
B2: probe 3 (dsDNA)
DNA 1: GTTCAGAGTTCTACAGTCCGACCTGGTTTATTTGGTCCAGGACTCGGACCTGGACTAGG
DNA 2: CCTAGTCCAGGTCCGAGTCCTGGACCAAATAAACCAGGTCGGACTGTAGAACTCTGAAC
B3: probe 4 (dsDNA)
DNA 1: GTTCAGAGTTCTACAGTCCGACCTGGTTTAATGGGTCCAGGACTCGGACCTGGACTAGG
DNA 2: CCTAGTCCAGGTCCGAGTCCTGGACCCATTAAACCAGGTCGGACTGTAGAACTCTGAAC
B4: probe 2 (dsDNA)
DNA 1: GTTCAGAGTTCTACAGTCCGACCTGGTTTGATTGGTCCAGGACTCGGACCTGGACTAGG
DNA 2: CCTAGTCCAGGTCCGAGTCCTGGACCAATCAAACCAGGTCGGACTGTAGAACTCTGAAC

For this data set, the target named is Dll (DllΔN) (Drosophila melanogaster, UniProt P20009 124-327). The experiment in a line: EMSA; 1:1 mix of dialysis buffer (20 mM HEPES pH 8.0, 200 mM NaCl, 10% glycerol, 2 mM MgCl2, 0.05% Tween 20) and DNA mix; final about 150 mM NaCl, 10 mM Tris pH 7.5. The settings on record: tags: His6 (kept); label: Cy5 on the primer strand. A general note: Mobility shift assays separate free from complexed probe on a gel.
Dll (DllΔN), sequence (P20009 124-327, stated change not applied): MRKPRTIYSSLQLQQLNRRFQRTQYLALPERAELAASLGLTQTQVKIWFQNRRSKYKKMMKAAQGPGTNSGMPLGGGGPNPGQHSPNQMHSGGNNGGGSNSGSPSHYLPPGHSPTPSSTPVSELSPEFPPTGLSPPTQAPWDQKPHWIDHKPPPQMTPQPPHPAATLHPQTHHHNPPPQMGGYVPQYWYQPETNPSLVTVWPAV
B1: binding was characterised by a dissociation constant (Kd) of 5.2 nM. As for B2, the Kd is around 2640 nM.

B3: binding was put at a Kd of 40.8 nM. The molecule B4 gave a Kd of 92.7 nM.
